Source: publication PMC3365889

Columns and labels:
[1] = target: T1, human synaptogyrin 1, transcript variant 1b, construct 5 (N-terminal His tag with TEV cleavage site) (human), O43759; assay: cross-linking; DDM-solubilised and purified synaptogyrin 1, 0.25 mM DSS, room temperature, quenched with 200 mM Tris at time points; SDS-PAGE and Western blot with His probe
T1 chain: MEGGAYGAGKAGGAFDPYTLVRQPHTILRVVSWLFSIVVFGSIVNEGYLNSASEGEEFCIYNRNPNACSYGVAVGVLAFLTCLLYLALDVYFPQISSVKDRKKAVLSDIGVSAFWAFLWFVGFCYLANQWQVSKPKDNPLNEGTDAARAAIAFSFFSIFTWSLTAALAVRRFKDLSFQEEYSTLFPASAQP

[2] = target: T1, human synaptogyrin 1, transcript …; assay: cross-linking; Triton X-100-solubilised and purified synaptogyrin 1, 1 mM glutaraldehyde, room temperature, quenched with 200 mM Tris at time points; SDS-PAGE and Western blot with His probe
[3] = target: T1, human synaptogyrin 1, transcript …; assay: cross-linking; crude E. coli membranes, 2 mM DMS, room temperature, quenched with 200 mM Tris at time points; SDS-PAGE and Western blot with His probe
[4] = target: T1, human synaptogyrin 1, transcript …; assay: SDS-PAGE (SDS-resistant dimer); SDS-PAGE of fractions from the large-scale IMAC purification in DDM

B1: human synaptogyrin 1, transcript variant 1b, construct 5 (N-terminal His tag with TEV cleavage site), O43759-2 1-191 (natural protein)
chain: T1 chain
stoichiometry N [1]: > 4 | stoichiometry N [2]: > 4 | stoichiometry N [3]: > 4 | stoichiometry N [4]: 2
